IntAct's records for PubMed 30058071

Molecular target: SHANK3, Q9BYB0-1
Sequence (Q9BYB0 whole entry): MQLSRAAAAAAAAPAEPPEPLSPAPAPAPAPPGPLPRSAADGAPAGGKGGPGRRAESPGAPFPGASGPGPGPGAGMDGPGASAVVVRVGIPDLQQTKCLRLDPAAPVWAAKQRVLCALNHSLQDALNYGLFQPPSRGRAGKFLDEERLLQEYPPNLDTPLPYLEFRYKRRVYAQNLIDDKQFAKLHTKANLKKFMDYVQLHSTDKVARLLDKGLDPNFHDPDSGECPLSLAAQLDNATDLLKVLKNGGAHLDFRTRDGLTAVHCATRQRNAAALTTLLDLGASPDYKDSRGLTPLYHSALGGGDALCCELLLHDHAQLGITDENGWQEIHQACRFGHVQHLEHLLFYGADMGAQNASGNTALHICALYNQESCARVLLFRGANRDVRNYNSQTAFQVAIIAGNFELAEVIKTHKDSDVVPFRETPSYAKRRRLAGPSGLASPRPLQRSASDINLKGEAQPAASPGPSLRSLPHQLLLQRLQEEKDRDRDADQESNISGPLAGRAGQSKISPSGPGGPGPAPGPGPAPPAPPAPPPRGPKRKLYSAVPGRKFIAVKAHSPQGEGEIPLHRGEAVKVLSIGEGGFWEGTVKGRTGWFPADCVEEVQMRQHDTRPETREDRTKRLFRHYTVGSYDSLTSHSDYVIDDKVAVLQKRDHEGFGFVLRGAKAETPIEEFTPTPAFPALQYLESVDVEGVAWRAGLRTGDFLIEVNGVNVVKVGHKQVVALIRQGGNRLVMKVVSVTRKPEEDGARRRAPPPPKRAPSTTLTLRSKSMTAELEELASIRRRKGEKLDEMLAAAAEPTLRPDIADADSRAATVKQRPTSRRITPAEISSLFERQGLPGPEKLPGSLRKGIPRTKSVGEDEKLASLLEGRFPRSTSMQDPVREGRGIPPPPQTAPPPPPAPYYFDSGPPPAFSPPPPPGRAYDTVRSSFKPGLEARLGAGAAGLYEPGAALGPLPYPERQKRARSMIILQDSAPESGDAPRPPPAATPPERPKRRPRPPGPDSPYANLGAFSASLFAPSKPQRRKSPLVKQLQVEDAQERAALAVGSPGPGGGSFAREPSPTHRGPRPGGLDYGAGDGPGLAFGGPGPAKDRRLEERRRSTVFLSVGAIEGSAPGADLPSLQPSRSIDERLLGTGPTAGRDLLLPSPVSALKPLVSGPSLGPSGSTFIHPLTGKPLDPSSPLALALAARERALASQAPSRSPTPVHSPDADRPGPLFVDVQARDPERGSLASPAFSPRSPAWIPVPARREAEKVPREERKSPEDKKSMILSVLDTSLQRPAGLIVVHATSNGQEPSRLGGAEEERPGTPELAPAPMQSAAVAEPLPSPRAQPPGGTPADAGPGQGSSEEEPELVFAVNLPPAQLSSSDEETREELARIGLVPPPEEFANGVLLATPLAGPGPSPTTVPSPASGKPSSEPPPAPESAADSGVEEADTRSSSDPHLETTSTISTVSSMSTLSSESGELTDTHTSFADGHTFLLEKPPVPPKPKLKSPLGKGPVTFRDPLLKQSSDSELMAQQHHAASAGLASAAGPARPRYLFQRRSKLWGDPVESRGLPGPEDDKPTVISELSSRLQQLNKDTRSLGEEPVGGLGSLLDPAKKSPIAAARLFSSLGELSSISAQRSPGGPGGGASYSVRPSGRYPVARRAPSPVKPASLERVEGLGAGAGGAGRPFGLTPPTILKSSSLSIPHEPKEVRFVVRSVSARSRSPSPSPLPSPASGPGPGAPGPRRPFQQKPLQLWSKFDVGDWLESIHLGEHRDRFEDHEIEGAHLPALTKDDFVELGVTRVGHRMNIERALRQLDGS

effect of a mutation on the interaction: disrupting interaction strength
Substance: Voltage-dependent L-type calcium channel subunit alpha-1D (Homo sapiens), Q01668 R1908G
